This assay has as its target CAR (receptor of the wild-type Ad) (human) (UniProt P78310). Briefly: cell-based or functional assay.
Chain of UniProt P78310 (P78310 20-365): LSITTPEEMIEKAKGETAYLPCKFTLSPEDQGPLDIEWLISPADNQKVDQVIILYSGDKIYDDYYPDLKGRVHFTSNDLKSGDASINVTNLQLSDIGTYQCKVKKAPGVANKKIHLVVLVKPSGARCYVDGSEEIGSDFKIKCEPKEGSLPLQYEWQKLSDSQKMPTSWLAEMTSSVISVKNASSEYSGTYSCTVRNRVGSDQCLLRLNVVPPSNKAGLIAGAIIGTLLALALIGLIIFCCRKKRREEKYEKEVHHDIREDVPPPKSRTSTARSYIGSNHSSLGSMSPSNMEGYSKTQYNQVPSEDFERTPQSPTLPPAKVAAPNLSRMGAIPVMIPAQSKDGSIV

As for Ad knob protein, the decrease of intracellular introduction efficiency (GFP expression, flow cytometry) of wild-type Ad (naked dE1/GFP) in MIA PaCa-2 cells pre-treated with knob protein at 0.2 ug/mL worked out at 76% and the decrease of intracellular introduction efficiency (GFP expression, flow cytometry) of wild-type Ad (naked dE1/GFP) in MIA PaCa-2 cells pre-treated with knob protein at 1 ug/mL was determined as 92%.

(Values after patent publication US20180296701A1.)
